Publication PMC5969528
Read-outs that look alike come from different tables or passages of the source.

How the values were obtained:
[1] = target: cytoplasmic dynein-1 heavy chain (mouse (endogenous in mouse brain)) (UniProt Q9JHU4); test: cryo-EM structure
[2] = target: cytoplasmic dynein-1 heavy chain (mouse (endogenous in mouse brain)) (UniProt Q9JHU4); test: cryo-EM structure; remark: listed apart in the source

“cytoplasmic dynein-1 heavy chain, Q9JHU4 1-4644” showed a stoichiometry N [1] of 2 and a stoichiometry N [2] of 2.
